The values below come from the supplement of paper PMC12042874.

± gives the uncertainty stated by the source.

A short description of the data set: amyloid nucleation score (Sup35N fusion, yeast selection) (log enrichment); library NNK3; higher = more nucleation; inactive = no reads after selection. In short, it runs like this:
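Peptides of 20 random codons, each fused to Sup35N, were expressed in psi-negative yeast. Cells were induced with 100 μM copper sulfate for 24 hours and grown 7 days at 30°C on medium lacking adenine and uracil, and plasmid inserts before and after selection were Illumina-sequenced. Nucleation scores are DiMSum log enrichments of output over input reads, centred on the mode score of non-aggregating sequences, and sequences under 100 input reads were excluded.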
For FGVSSP, the amyloid nucleation score result was “inactive”.
In the case of FGWAWPFFTKVHHTSTV it was “inactive”; in that of FGWVFLYDKLIPVKPFELYF, “inactive”.
With FGYNYLCTFSFIISMVHVRF the entry was “inactive”; with FHIRHEGMLFQWGHEALAVK, “inactive”; with FHTPRILYTMNS, “inactive”.
In the case of FIFHNHVFFDLSNMFRYYVY, the amyloid nucleation score was 1.92 ± 0.087.
Take FIIDVLTMASTLGCSVQN: the amyloid nucleation score entry is “inactive”.
With FIIIVDYSFMPGSRVCMFSW the entry was “inactive”.
For FIPGAMVRYQGRILLRSDAG, the amyloid nucleation score result was “inactive”.
In the case of FISLPWYCQLVMVRDTSIIK, the amyloid nucleation score entry is “inactive”.
Regarding FISLVPLLSLYRPWVKK, the amyloid nucleation score is 0.836 ± 0.18.
Turning to FITFHENDAVELEG, the amyloid nucleation score result is “inactive”.
For FIVVVLLCFG, the amyloid nucleation score result was “inactive”.
In the case of FIWAREFSVLRSHRRWPTEN it was “inactive”; in that of FKAMTFAYGYLTVGLSVVGV, “inactive”.
As to FKASSGWLDLWD, the amyloid nucleation score result was “inactive”.
With FKAVQN the entry was “inactive”; with FKFVQDAHQNLGVIRSYRRS, “inactive”; with FKRYY, “inactive”.
On to FKSCLRTC, for which the amyloid nucleation score entry is “inactive”.
As to FKTCLGPQSTLVKGEVESHT, the amyloid nucleation score result was “inactive”.
Substance FKWDGPESQFGPSLMRINGA yielded an amyloid nucleation score of 1.16 ± 0.19.
In the case of FLAFSMEYCYVPHFWKVSLS it was 0.311 ± 0.25; in that of FLCLMTTKTKCNF, “inactive”.
For FLCMMTVVYQFVWMMMQGAV, the amyloid nucleation score entry was “inactive”.
Consider FLDEFLWSCGIGFLRFIKDV, for which the amyloid nucleation score result is “inactive”.
As for FLEWEGFRVCIENHMELLRF, the amyloid nucleation score entry was “inactive”.
In turn, FLFSWEKFVCLCCILY displayed an amyloid nucleation score of 0.32 ± 0.49.
Consider FLGSLDFVSIKCQITHVRTS, for which the amyloid nucleation score entry is “inactive”.
With FLHILGHVNLFTSLREDLSL the entry was “inactive”; with FLLDMGVNALSW, “inactive”.
In the case of FLLKEWLK it was -0.626 ± 0.9.
As to FLLNLMIHLFYLVLKSRNQN, the amyloid nucleation score result is “inactive”.
As for FLMHSKVTSCGVWSLYFADV, the amyloid nucleation score came to 1.44 ± 0.15.
FLMWVSR yielded an amyloid nucleation score of 1.08 ± 0.12.
Take FLPDKGYTWKGTLWRWESNN: the amyloid nucleation score result was “inactive”.
On to FLPRFGNHLTIRQKVRRTSG, for which the amyloid nucleation score result is “inactive”.
Regarding FLSDYGSC, the amyloid nucleation score result was “inactive”.
Substance FLSLIKM returned an amyloid nucleation score of 0.39 ± 0.2.
Turning to FLSSVSLGDAHSWTFSR, the amyloid nucleation score entry was “inactive”.
FMHSLTGNSGWGKGYRKSHV: the amyloid nucleation score worked out at 1.04 ± 0.19.
On to FMPMFLRICCTMMLMWLFAC, for which the amyloid nucleation score result was “inactive”.
FMSRMRKWFGCSNTHSSGTR had an amyloid nucleation score of 1.77 ± 0.078.
FNERDWCNSSGSSHVLWSSM: the amyloid nucleation score result is “inactive”.
For the substance FNGSTCCVSSV, the amyloid nucleation score entry is “inactive”.
For FNLFRNLIMGNCSALMMDQP, the amyloid nucleation score entry is “inactive”.
For FNLSVINSRGQLECVLNPVK, the amyloid nucleation score result was “inactive”.
As for FNPKSWKVTKLYFKMYNRLD, the amyloid nucleation score result is “inactive”.
With FNSILIVSLHLFSGFDSMR the figure was 1.86 ± 0.093; with FNSPSWTYDRLHFPAEQQAL, “inactive”; with FNTFVPRKYH, “inactive”.
Take FNVANIRSRFFHFTYSRKVS: the amyloid nucleation score entry was “inactive”.
Take FNVPS: the amyloid nucleation score worked out at 0.673 ± 0.42.
Regarding FNVRRHHYYGMCPLLISRVR, the amyloid nucleation score result was “inactive”.
As for FNVTGFSIIGKFIHDWFFLL, the amyloid nucleation score entry is “inactive”.
For FNVTWKRLRIGRVGMKQKLS, the amyloid nucleation score came to 0.336 ± 0.77.
Consider FNWCWPISARAGELNLECWS, for which the amyloid nucleation score entry is “inactive”.
As for FNWFLRWFNPVCKDALWVEC, the amyloid nucleation score entry is “inactive”.
For FNWMPMGEKSAWAVRVRSAC, the amyloid nucleation score entry is “inactive”.
In the case of FNWTKS, the amyloid nucleation score entry was “inactive”.
As for FPDLVVYSS, the amyloid nucleation score result is “inactive”.
With FPHGVHPYS, the amyloid nucleation score entry is “inactive”.
Consider FPPCTLSKLGSGYHLSNESS, for which the amyloid nucleation score entry is “inactive”.
In the case of FPSIYLMSD it was “inactive”.
Consider FPWSSRATRSGEVTV, for which the amyloid nucleation score entry was “inactive”.
In the case of FQYRLTVEGMSWWTGGW it was “inactive”.
In the case of FRFFFRKSQFYNRSLDNLVR it was “inactive”.
FRHPIYCLDLSFSYRMKARG: the amyloid nucleation score came out at 0.052 ± 0.28.
For FRKTRIALFLPLTLDF, the amyloid nucleation score entry is “inactive”.
For FRMASS, the amyloid nucleation score result was “inactive”.
For FRQYHMRRVRLHGRRDVYGQ, the amyloid nucleation score result was “inactive”.
As for FRYAMSYVGGMGSSINALIW, the amyloid nucleation score entry is “inactive”.
On to FRYQDNDLLAHAA, for which the amyloid nucleation score is -0.474 ± 1.
Take FRYVWFCYCMNVERVENVRL: the amyloid nucleation score entry was “inactive”.
FSALWTRHKWNFPRMTTFAR: the amyloid nucleation score result is “inactive”.
As for FSAPVLSTLTASLLELKRSG, the amyloid nucleation score entry is “inactive”.
Turning to FSDMCGRSFINSSWGGSAGV, the amyloid nucleation score result is “inactive”.
With FSEIVDYRGGIYGSYLNESM the entry was “inactive”; with FSFMLSDTGLSVFSSVYDEA, “inactive”; with FSLSCPLSDPNVACTY, “inactive”.
For FSSLLTSDWRASCLGPYVNM, the amyloid nucleation score entry is “inactive”.
In the case of FSYVCFGYV, the amyloid nucleation score was 0.337 ± 0.14.
As to FTMSYYKYLSHGRMRRGT, the amyloid nucleation score result is “inactive”.
Regarding FTNKNCFIGAVTRCEVRVWG, the amyloid nucleation score result is “inactive”.
Take FTPYICVVQLLCYCMILRIY: the amyloid nucleation score result is “inactive”.
Regarding FTRAAREGFFDLY, the amyloid nucleation score is -0.04 ± 0.66.
With FTSEAPIKVQHWVYTSLPSV the entry was “inactive”; with FTSMFVLIVILSQMLSLQFR, “inactive”; with FTVGILFGNLHLEFGVKVND, 1.6 ± 0.071.
On to FTWLSMYYCLRANERK, for which the amyloid nucleation score stood at 1.33 ± 0.15.
Take FVDMIMKEDKFVLGQNFLRG: the amyloid nucleation score entry is “inactive”.
In the case of FVDWFLVGCRMVMLDRVLAS, the amyloid nucleation score entry was “inactive”.
For FVFIQSHYQNMRFGKF, the amyloid nucleation score result is “inactive”.
In turn, FVFRHYSRPDIFQDGKKSAN showed an amyloid nucleation score of 1.08 ± 0.15.
FVGTCGMMSALFLHSSPSFV: the amyloid nucleation score entry is “inactive”.
For FVHHYIWRVNL, the amyloid nucleation score was found to be 0.712 ± 0.36.
As for FVHQRYRAQIIRLLPTSWGC, the amyloid nucleation score entry was “inactive”.
In the case of FVLMPSSFYNYWTTSEDFRS it was “inactive”.
With FVLVN the entry was “inactive”; with FVLVWFLRLFDL, “inactive”.
In the case of FVQDFSTFTAGWCL it was “inactive”; in that of FVRGCSRNSTRDCFYK, “inactive”.
On to FVRSQSCS, for which the amyloid nucleation score entry is “inactive”.
For the substance FVSMRIYGGLRRWHHEYLVV, the amyloid nucleation score result is “inactive”.
With FVTKRCFDMLF the entry was “inactive”; with FVWMLRWMGRDD, 0.816 ± 0.24.
With FVYLSSKYIMSQMFKGKQMY, the amyloid nucleation score result was “inactive”.
In the case of FWDTKFEFFQLHRVWIPLLV, the amyloid nucleation score entry was “inactive”.
With FWFLYSSRAQRRRRHWI the entry was “inactive”; with FWGLSAMSLEVRGWRMGGEL, 0.196 ± 0.54.
Consider FWLHLVPYRFPIVGLCLRG, for which the amyloid nucleation score entry was “inactive”.
As for FWMCVSVSARWAPTSLGFGS, the amyloid nucleation score result is “inactive”.
In the case of FWQSIYDGMGSVIFHHGFTQ it was 0.434 ± 0.14.
In the case of FWRSGNFYVNTVVLCASSRE it was 2.03 ± 0.099.
With FWYSYQ, the amyloid nucleation score result is “inactive”.
FYFKR: the amyloid nucleation score result was “inactive”.
In the case of FYFMPNFV, the amyloid nucleation score entry is “inactive”.
In the case of FYFNYFIRMCNITCDI it was 2.73 ± 0.05.
In the case of FYHVTGLFT it was “inactive”; in that of FYIFNWGFFGIKWYLIWNEI, “inactive”.
In the case of FYLCKRMNGSWNTLISV it was “inactive”; in that of FYRCLLNH, “inactive”; in that of FYSECCILMGFFVGQNHSVW, 1.61 ± 0.094.
As to FYSWDIHGCIVHSIYV, the amyloid nucleation score entry is “inactive”.
In turn, FYVNINFSELVSVDTISSFI came in with an amyloid nucleation score of 0.208 ± 0.31.
On to FYVSSTP, for which the amyloid nucleation score result is “inactive”.
With FYWSLNSYVCASCMILFALM, the amyloid nucleation score entry is “inactive”.
In the case of GACRCNCSSSDDPQNKRNML, the amyloid nucleation score entry is “inactive”.
In the case of GACTHGRSSCDKIYLRYSYG, the amyloid nucleation score result was “inactive”.
Regarding GAGTGQWLDSFGVEIHHPRS, the amyloid nucleation score result is “inactive”.
With GAGWTQAIAFIQS the entry was “inactive”.
